In PMC9482650, “Quantitative fragmentomics allow affinity mapping of interactomes” (Nature Communications, 2022):
Residue numbers refer to the chain shown, from its start.

T1: ARHGAP21, Q5T5U3
T1 sequence (Q5T5U3 45-169, limits assumed, looked up): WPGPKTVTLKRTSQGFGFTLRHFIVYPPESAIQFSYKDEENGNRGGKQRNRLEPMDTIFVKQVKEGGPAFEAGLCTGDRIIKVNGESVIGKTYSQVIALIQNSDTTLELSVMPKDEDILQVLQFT

T2: DLG3_1, Q92796
T2 sequence (Q92796 125-227, limits assumed, looked up): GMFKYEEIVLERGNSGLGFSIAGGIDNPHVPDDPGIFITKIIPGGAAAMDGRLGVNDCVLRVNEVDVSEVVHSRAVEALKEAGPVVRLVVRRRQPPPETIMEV

T3: GRIP1_4, Q9Y3R0
T3 sequence (Q9Y3R0 467-571, limits assumed, looked up): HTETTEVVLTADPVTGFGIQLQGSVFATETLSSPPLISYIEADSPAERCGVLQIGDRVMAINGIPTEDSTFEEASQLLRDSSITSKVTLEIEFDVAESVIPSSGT

T4: LIN7B, Q9HAP6
T4 sequence (Q9HAP6 88-185, limits assumed, looked up): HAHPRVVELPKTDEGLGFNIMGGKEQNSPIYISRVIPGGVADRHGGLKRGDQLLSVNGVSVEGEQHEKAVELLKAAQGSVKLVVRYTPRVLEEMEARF

T5: LIN7C, Q9NUP9
T5 sequence (Q9NUP9 88-185, limits assumed, looked up): T4 sequence (Q9HAP6 88-185, limits assumed, looked up) with A2S, D13E, V35I, V40I, Q65H, S79K, R89K, A96S

T6: MPDZ_10, O75970
T6 sequence (O75970 1624-1722, limits assumed, looked up): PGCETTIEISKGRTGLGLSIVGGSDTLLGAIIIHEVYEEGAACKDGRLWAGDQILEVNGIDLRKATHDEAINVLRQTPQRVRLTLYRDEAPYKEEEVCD

T7: MPDZ_5, O75970
T7 sequence (O75970 695-796, limits assumed, looked up): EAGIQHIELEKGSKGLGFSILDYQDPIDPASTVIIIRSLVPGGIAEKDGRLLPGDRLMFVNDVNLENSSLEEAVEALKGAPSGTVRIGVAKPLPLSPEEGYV

T8: MPP6, Q9NZW5
T8 sequence (Q9NZW5 125-219, limits assumed, looked up): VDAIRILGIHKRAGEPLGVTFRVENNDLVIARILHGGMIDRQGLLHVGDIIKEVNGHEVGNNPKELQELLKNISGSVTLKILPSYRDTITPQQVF

T9: PDZD2_2, O15018
T9 sequence (O15018 329-429, limits assumed, looked up): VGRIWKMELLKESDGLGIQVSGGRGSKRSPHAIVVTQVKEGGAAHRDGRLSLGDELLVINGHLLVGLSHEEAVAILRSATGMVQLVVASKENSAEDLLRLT

T10: SNTB1, Q13884
T10 sequence (Q13884 107-205, limits assumed, looked up): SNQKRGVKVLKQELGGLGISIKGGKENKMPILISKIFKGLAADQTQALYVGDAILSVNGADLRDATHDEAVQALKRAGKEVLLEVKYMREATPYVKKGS

T11: TIAM2, Q8IVF5
T11 sequence (Q8IVF5 885-986, limits assumed, looked up): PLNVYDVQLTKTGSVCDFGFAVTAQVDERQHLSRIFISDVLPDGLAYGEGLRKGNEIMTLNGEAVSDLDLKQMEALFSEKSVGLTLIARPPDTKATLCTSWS

T12: TX1BP3, O14907
T12 sequence (O14907 10-122, limits assumed, looked up): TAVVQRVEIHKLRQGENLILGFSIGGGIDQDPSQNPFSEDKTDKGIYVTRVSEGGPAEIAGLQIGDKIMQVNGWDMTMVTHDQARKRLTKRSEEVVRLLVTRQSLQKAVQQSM


Legend:
Experiment in all cases: holdup assay
Design in all cases: key: below the threshold = too weak to quantify, mostly under pKd 3.1 to 4
Conditions in all cases: plain residues with an end cap or a label only (N-terminal biotin on a linker: ado-ado)
AHNAK1, Q09666 = target: AHNAK1, Q09666
ARHGAP21, Q5T5U3 = target: T1, ARHGAP21, Q5T5U3
DLG3_1, Q92796 = target: T2, DLG3_1, Q92796
DLG5_1, Q8TDM6 = target: DLG5_1, Q8TDM6
FRMPD2_1, Q68DX3 = target: FRMPD2_1, Q68DX3
FRMPD2_2, Q68DX3 = target: FRMPD2_2, Q68DX3
GRASP, Q7Z6J2 = target: GRASP, Q7Z6J2
GRID2IP_2, A4D2P6 = target: GRID2IP_2, A4D2P6
GRIP1_4, Q9Y3R0 = target: T3, GRIP1_4, Q9Y3R0
Inadl_6, Q8NI35 = target: Inadl_6, Q8NI35
LAP2, Q96RT1 = target: LAP2, Q96RT1
LIN7B, Q9HAP6 = target: T4, LIN7B, Q9HAP6
LIN7C, Q9NUP9 = target: T5, LIN7C, Q9NUP9
LNX1_2, Q8TBB1 = target: LNX1_2, Q8TBB1
MAGI1_2, Q96QZ7 = target: MAGI1_2, Q96QZ7
MPDZ_10, O75970 = target: T6, MPDZ_10, O75970
MPDZ_5, O75970 = target: T7, MPDZ_5, O75970
MPP6, Q9NZW5 = target: T8, MPP6, Q9NZW5
PDZD2_2, O15018 = target: T9, PDZD2_2, O15018
PICK1, Q9NRD5 = target: PICK1, Q9NRD5
SCRIB_3, Q14160 = target: SCRIB_3, Q14160
SNTB1, Q13884 = target: T10, SNTB1, Q13884
SNX27, Q96L92 = target: SNX27, Q96L92
TIAM2, Q8IVF5 = target: T11, TIAM2, Q8IVF5
TX1BP3, O14907 = target: T12, TX1BP3, O14907

Sequence of Inadl_6, Q8NI35 (Q8NI35 1058-1167): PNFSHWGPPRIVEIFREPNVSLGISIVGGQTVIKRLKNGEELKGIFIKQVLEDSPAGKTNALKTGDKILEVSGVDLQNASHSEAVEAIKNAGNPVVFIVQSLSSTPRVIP
Sequence of LAP2, Q96RT1 (Q96RT1 other isoform, or with tags, fused parts or gaps): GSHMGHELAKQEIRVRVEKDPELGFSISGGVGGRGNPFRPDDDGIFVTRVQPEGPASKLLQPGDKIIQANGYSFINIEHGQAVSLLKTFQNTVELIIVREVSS
Sequence of GRASP, Q7Z6J2 (Q7Z6J2 96-193): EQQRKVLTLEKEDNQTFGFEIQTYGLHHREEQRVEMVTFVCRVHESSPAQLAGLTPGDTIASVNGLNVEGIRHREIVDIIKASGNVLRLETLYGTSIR
Sequence of LNX1_2, Q8TBB1 (Q8TBB1 371-470): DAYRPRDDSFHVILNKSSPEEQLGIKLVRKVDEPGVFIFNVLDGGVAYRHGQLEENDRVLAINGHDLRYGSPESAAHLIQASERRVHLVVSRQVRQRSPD
Sequence of FRMPD2_1, Q68DX3 (Q68DX3 770-861): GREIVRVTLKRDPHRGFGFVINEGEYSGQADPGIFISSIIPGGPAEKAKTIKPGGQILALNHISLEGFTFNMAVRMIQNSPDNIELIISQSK
Sequence of AHNAK1, Q09666 (Q09666 4-100): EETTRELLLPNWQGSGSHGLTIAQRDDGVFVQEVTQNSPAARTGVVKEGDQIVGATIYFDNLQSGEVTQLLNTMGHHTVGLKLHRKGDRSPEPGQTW
Sequence of GRID2IP_2, A4D2P6 (A4D2P6 272-370): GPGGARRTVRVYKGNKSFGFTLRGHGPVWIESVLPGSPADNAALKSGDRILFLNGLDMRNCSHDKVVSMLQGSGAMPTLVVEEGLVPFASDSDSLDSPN
Sequence of PICK1, Q9NRD5 (Q9NRD5 17-115): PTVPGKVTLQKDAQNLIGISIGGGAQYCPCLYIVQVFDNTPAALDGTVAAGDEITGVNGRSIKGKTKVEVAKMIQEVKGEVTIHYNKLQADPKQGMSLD
Sequence of MAGI1_2, Q96QZ7 (Q96QZ7 456-580): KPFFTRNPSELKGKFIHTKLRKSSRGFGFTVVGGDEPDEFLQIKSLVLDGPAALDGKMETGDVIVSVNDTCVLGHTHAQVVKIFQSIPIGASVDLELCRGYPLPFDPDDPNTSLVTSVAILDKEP
Sequence of FRMPD2_2, Q68DX3 (Q68DX3 944-1038): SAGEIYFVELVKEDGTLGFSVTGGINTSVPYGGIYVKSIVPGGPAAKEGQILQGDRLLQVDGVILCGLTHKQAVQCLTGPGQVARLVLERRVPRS
Sequence of DLG5_1, Q8TDM6 (Q8TDM6 617-713): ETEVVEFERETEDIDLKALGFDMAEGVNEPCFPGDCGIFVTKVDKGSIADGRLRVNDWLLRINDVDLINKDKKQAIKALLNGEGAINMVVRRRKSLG
Sequence of SCRIB_3, Q14160 (Q14160 999-1103): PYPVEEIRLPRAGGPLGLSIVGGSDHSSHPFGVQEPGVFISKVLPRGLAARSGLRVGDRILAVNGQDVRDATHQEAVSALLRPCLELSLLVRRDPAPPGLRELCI

Binder	pKd (AHNAK1, Q09666)	pKd (ARHGAP21, Q5T5U3)	pKd (DLG3_1, Q92796)	pKd (DLG5_1, Q8TDM6)	pKd (FRMPD2_1, Q68DX3)	pKd (FRMPD2_2, Q68DX3)	pKd (GRASP, Q7Z6J2)	pKd (GRID2IP_2, A4D2P6)	pKd (GRIP1_4, Q9Y3R0)	pKd (Inadl_6, Q8NI35)	pKd (LAP2, Q96RT1)	pKd (LIN7B, Q9HAP6)	pKd (LIN7C, Q9NUP9)	pKd (LNX1_2, Q8TBB1)	pKd (MAGI1_2, Q96QZ7)	pKd (MPDZ_10, O75970)	pKd (MPDZ_5, O75970)	pKd (MPP6, Q9NZW5)	pKd (PDZD2_2, O15018)	pKd (PICK1, Q9NRD5)	other results
SNAGNTATKA [NOSTRIN, Q8IVI9]	below the threshold	below the threshold	below the threshold	below the threshold	below the threshold	below the threshold	below the threshold	below the threshold	below the threshold	below the threshold	below the threshold	3.74	below the threshold	below the threshold	below the threshold	below the threshold	below the threshold	below the threshold	below the threshold	below the threshold	pKd (SCRIB_3, Q14160): below the threshold; pKd (SNTB1, Q13884): below the threshold; pKd (SNX27, Q96L92): below the threshold; pKd (TIAM2, Q8IVF5): 4.11; pKd (TX1BP3, O14907): below the threshold
SGSLKLMTTV [DACT1, Q9NYF0]	below the threshold	below the threshold	4.45	below the threshold	below the threshold	below the threshold	4.02	3.97	below the threshold	below the threshold	below the threshold	below the threshold	below the threshold	3.84	5.1	below the threshold	below the threshold	below the threshold	3.92	4.09	pKd (SCRIB_3, Q14160): 3.59; pKd (SNTB1, Q13884): 3.64; pKd (SNX27, Q96L92): 4.35; pKd (TIAM2, Q8IVF5): below the threshold; pKd (TX1BP3, O14907): 3.75
TKGPRGPTRV [SAPCD1, Q5SSQ6]	below the threshold	below the threshold	3.96	below the threshold	4.35	below the threshold	4.59	4.58	below the threshold	below the threshold	3.72	below the threshold	below the threshold	below the threshold	4.19	4.4	below the threshold	below the threshold	3.88	4.11	pKd (SCRIB_3, Q14160): 3.78; pKd (SNTB1, Q13884): 4.46; pKd (SNX27, Q96L92): 4; pKd (TIAM2, Q8IVF5): below the threshold; pKd (TX1BP3, O14907): below the threshold
QGPVETESVV [SLC45A4, Q5BKX6]	below the threshold	4.14	3.88	below the threshold	below the threshold	4.19	3.48	3.55	below the threshold	3.57	3.66	below the threshold	below the threshold	below the threshold	below the threshold	below the threshold	below the threshold	below the threshold	5.27	below the threshold	pKd (SCRIB_3, Q14160): 3.9; pKd (SNTB1, Q13884): 4.94; pKd (SNX27, Q96L92): 5.73; pKd (TIAM2, Q8IVF5): below the threshold; pKd (TX1BP3, O14907): 3.81
